Data on 12 sequences can be found in the DeepSol protein solubility set.

This data set is described as follows: soluble on expression in E. coli; label from the status in PepcDB or PDB records.
In the case of “MSLKVRNLNISLKNNLLLKDINLDIKTGKTLMILGQSGVGKSLLGKALVRLLDSNFTISFDELSFHNSCIFNFNKEELRNFRSKVALVLQDAELSLYPYLDIGNLCHLVLKTHTKLKQKERKDYAFSYFQKLGFENLDRLWHSYANELSLGMARRVSLALALLNQPQILICDEITASLDKENASKIISILEELKNTAALVCITHDLNLVNSLADEILMLEKNSSNLYSLDEFLRYYNAEGHHHHHH”, the “soluble on expression in E. coli” value is on record as “soluble”. For “MSLKVSAHNGNSDPSGAVQRRQSFRKSKTEDTVGTGNNGAANGGGGGAAANNNQMLENDLLSKYMGNQSPARQQVKKNLLNGTSGGGESVPAKPKTYDARCYVQNGSINFGKIITDEVLAADYDLVEAAKKMSDFAGTTALIAVIHRTKLIVANVGDSRGVMCDFKGNAIPLSFDHKPQQVREQKRIADAGGFIAFKGVWRVAGILATSRALGDYPLKEKNLVIANPDVLSFDLVDHRPQFLILASDGLWDTFTNEEAVAYVRERLDEPHFGAKSIALQSYSRGSVDNITVLVIVLKNGRYEIGSSSNEGHHHHHH”, the “soluble on expression in E. coli” value is given as “soluble”.

As to “MSLKWSAIPFQTLYRSIESGEFDFDLFKEVLPDLQNLNLNTDKLKNNASRSQLEKGEIELSDGSTFKVNQEFIFEAISLSDELNLDEIVACELILSGDTTANNGKVQYFLRRQYILQIVSFIVNCFHEDTELYQELIKNGALVSNILSAFKFIHTQLSEIKQQINKAQILENYNALFQQNIKFRRDFLLREYDILSQILYGLVDKGAIMKNKDFILSLLHHVSELDSNDFFIIYYTPAFFHLFASLRVLPDADVKLLHSQFMKDLKDDSIYTKPVKVALIFIFFAYFIGWCKEDPKRRADTMDFKTDVDEPMTSAVELGAIEQILIFAADTSIVEQDKSMELFYDIRSLLERHIPRLIPKQLLDDEKIFSQTTNSTYNPASATDNMSGRGLWNPSYPGMMSTTGTARLNSMPNNVNEYSYTTIVLSDQTQEFFLSSFDDVLQTIITDCAFLLTKIKDAEEDSLLSGEDLTLDDISLKADLERFFLSIYFFYASRPEYSCTFWSDKESNAYGFIEWCSRCNDNLMRSCFYLMVSSLSFGPENALNVYHYFGENSSISWKNIAQCLSDYTKKISNFNSSLHKRQQFSESTHNDIDSTAVALEEGLNEEAVIFLSSLLTLVGSVTYQVDEDVKSSLSKVFSDVLFEFTKINTPLVGAAFKVISNLVPKLESSRTKFWSFLDSLIFKDSSLNYSSESYRNAFTNVLTKYSDVLGFLQLFHNLISIHSRENNSEYMVFGKLAFPTRLGQGYRKVGIWPYFDYIFNDILAHVDQIVDIRNKRAVQLPILKIIYTGLCSFDYSVILNSIPAAANLDALVDCENFFNYVQECPAIPIFNYIFTEKIYKSIFNVVDVGVDQLSIELEGGKNQAELLQLAVKIINKVLDYQETYVEELFPIVKKHGKTDYFLPKNYSLHGLRSFYDAIFFNIPLVAHLGLYVGVDDQILATNSLRILAKLSERSNGSVASLSEGHHHHHH”, the “soluble on expression in E. coli” value was “soluble”. With “MSLKWSITQLRKYQGKPFEFDQTVSFDNLKESLDLIDLSPITIQGQLTIKSTEVVADIHITGTYTMPCARTLVPVKVPLDVTTTEVFDLEGYNQYNDDQDDVDEHYHIIKDGMVNLQDIVEDIVIIEKPMRAYSEQSDQMLTVGNGWEVIDEDQLDELAKQQEQDDSESRQVDPRLQKLQQLYDKEQEGHHHHHH” the entry was “soluble”. To “MSLKWTIYQLHQMPKQSFEFDETVELNELTKLNSDIRRISPVRVKGRADIKSKQVSFDFTISGEMLLPCSRTLVDVPYPFEISTKELFIFHHTDDIEDDDVHIVEDDTIDITPIVKEEILLEIPMQIFCESEQEKGAAPQEGKDWQVISEEDKKNQVDPRLAALEKLLKQDDESEGHHHHHH” belongs “soluble”; to “MSLKYEYCPICGKKLEKKYSYDEGDVPYCQKDKIMFFDVPKPCVLVAVIKGQEILLLKQEYTFKDSKILVSGYVANGETVEETVVREVKEEVGIIVEKPEYLGSYYFKPKELIMLTFMVRYVSGEITKSQEVDEAYWVNMRDVLQEMNEDKVGKDVVKKVFKRIGYNEEKYLHKEGHHHHHH”, “not soluble”. For “MSLKYLVIGSNSFTGASMVSYLLDQGADVVGISRSDEPHPAFLPYRWKKADRFRFQKLDLNHDLDAIMQLVTAERFPCIINFAAQSMVGESWANPDHWFMTNVVSTVRLHERLRICDFLERYVHVTTPEVYGNATGTLTEDAVFDPSTPYAVSRAAGDMSLRSYFRAYGFPVLFTRAANVYGPGQRLYRIVPRTILFIKLGRKLQLHGGGTSERSFIHAADVADATRRIACNGKLGDSYHISTDRIVTIRALVEMICAMMRVRFEDQVEIVGERLGKDAAYKLDSSKLRSELGWSDQITLEQGIEQTIAWIDRWFEELKSQPFDYAHKEGHHHHHH”, the “soluble on expression in E. coli” value is “not soluble”. Regarding “MSLKYPGFLYLNDIHIDLSYNPKSNKDWCHSQTNNLLESWEFGQYNCDPPPKLYDSLVESLKTNVPSVDFILLGGDLPSHDLGGNYTFLKEHFRLITDPLEKLYPNKKIFITLGNNDFQENYGSFKTDLKDFENAHEVFGKWMNEEQSKTFKKGGYYYEDMPELKLRLLLLNTVMYTNTKSRVFNESLKDPYDQFAWIRQTYKEGVDKGYKVGVALHVPPGIVYYKGIPGFPSMYLEEFGKVFEECDFSFTISGHSHIDTLNPLYKANVEEDNIQYSLSAVSVSPSHYNNPGYRYFEIKDGVLQDYTQFYADIMMNPDSPKWEVEYKFRDAYKVKDLSKKSLNDATRYIRSKGSVIWSYRGYIYSQAEKYNPFFYCALRALTKEDVFKCSLDLNVNLSSEGHHHHHH”, the “soluble on expression in E. coli” value is “soluble”. Regarding “MSLKYVKSLFEIHPDIATKFRIKNQYLKTGYMNVLLCLIETVRRSPKEISKNDLADAYVALESLTDHGFKLDWLKKKLDQVTQKKEKEAAGETRMHEIGEELKDLKLKCSDLEAQLDKVKWKCSDLEAQLVKEKADVLAAIAPLGSSDDGVFDDFFEKQYTGFVRKYQIGASQTWFLLLNSRPKIVDFWSRANSKALLKARFLKLLAYAMCQNQKAWMSTGFMFYLPKRLLAFPKGNDTKSDHLSLYLDVAESESLPCGWRRHAQFSFTIVNHIPEKCSQRKDGEGSSFYEEIQLGHQEFLLFAIAENILASVRDARLQEGHHHHHH”, the “soluble on expression in E. coli” value is recorded as “not soluble”. Consider “MSLLEYLPPGVDTDRFRPDPAARAELRKRYRLGERPTVVCLSRLVPRKGQDTLVTALPSIRRRVDGAALVIVGGGPYLETLRKLAHDCGVADHVTFTGGVATDELPAHHALADVFAMPCRTRGAGMDVEGLGIVFLEASAAGVPVIAGNSGGAPETVQHNKTGLVVDGRSVDRVADAVAELLIDRDRAVAMGAAGREWVTAQWRWDTLAAKLAEGHHHHHH”, for which the “soluble on expression in E. coli” value is listed as “not soluble”. Take “MSLLIKNGKIFTCEEGKIYEKGDILIKDGKISKIGEDLSQYIGEEEVIDAKGLLIFPGFIEAHCHLGLHEEGNNGAGNGTNEASEPITPQMRAIDGINPFDGGFQSAREAGVTTAVIGPGSANVIGGQFAAVKTSGICIDDMIIKESVAIKVAFGENPKRVYSGKNKMPNTRMAIAALLRETLTEAVNYKNRKIDAEIEDKDFSKNLKYEALLPLINREIPMKAHAHRADDILTAIRIAKEFNLKLTLDHCTEGHLISDYIKRENLDAIVGPTLSFNGKAETLNKTFKTPKALIDKGIKVAITTDHPVVTIDNLPLCAAMAMKEGITFNEVLEAITINPAEIIGIDERVGSLKEGKDGDLVILNGSPFEIATKTIYTIINGEVVYKDEGHHHHHH”: the “soluble on expression in E. coli” value is “soluble”. Regarding “MSLLNQKIQNPNPDELMIEVDLCYELDPYELKLDEMIEAEPEPEMIEGLPASDALTPADRYLELFEHVQSAKIFPDSKTFPDCAPKMDPLDILIRYRKVRRHRDFDLRKFVENHFWLPEVYSSEYVSDPQNSLKEHIDQLWPVLTREPQDHIPWSSLLALPQSYIVPGGRFSETYYWDSYFTMLGLAESGREDLLKCMADNFAWMIENYGHIPNGNRTYYLSRSQPPVFALMVELFEEDGVRGARRYLDHLKMEYAFWMDGAESLIPNQAYRHVVRMPDGSLLNRYWDDRDTPRDESWLEDVETAKHSGRPPNEVYRDLRAGAASGWDYSSRWLRDTGRLASIRTTQFIPIDLNAFLFKLESAIANISALKGEKETEALFRQKASARRDAVNRYLWDDENGIYRDYDWRREQLALFSAAAIVPLYVGMANHEQADRLANAVRSRLLTPGGILASEYETGEQWDKPNGWAPLQWMAIQGFKMYGDDLLGDEIARSWLKTVNQFYLEQHKLIEKYHIADGVPREGGGGEYPLQDGFGWTNGVVRRLIGLYGEPEGGSHHHHHH”, the “soluble on expression in E. coli” value was “soluble”.
